Reference: patent publication US8178319B2, “Peptides and uses thereof” (priority 2008, dated 2012)

B1: rAAL: Recombinant full length His-tagged Aleuria aurantia lectin (protein, UniProt P18891 2-313, looked up)
Fucose-specific lectin: PTEFLYTSKIAAISWAATGGRQQRVYFQDLNGKIREAQRGGDNPWTGGSSQNVIGEAKLFSPLAAVTWKSAQGIQIRVYCVNKDNILSEFVYDGSKWITGQLGSVGVKVGSNSKLAALQWGGSESAPPNIRVYYQKSNGSGSSIHEYVWSGKWTAGASFGSTVPGTGIGATAIGPGRLRIYYQATDNKIREHCWDSNSWYVGGFSASASAGVSIAAISWGSTPNIRVYWQKGREELYEAAYGGSWNTPGQIKDASRPTPSLPDTFIAANSSGNIDISVFFQASGVSLQQWQWISGKGWSIGAVVPTGTPAGW
modifications: His-tag
notes: Recombinant full length His-tagged Aleuria aurantia lectin
B2: Mono-F2: Recombinant His-tagged monovalent fucose-binding fragment of Aleuria aurantia lectin, site 2 (AAL aa 51-161) (protein, listed as Aleuria aurantia)
chain: SQNVIGEAKLFSPLAAVTWKSAQGIQIRVYCVNKDNILSEFVYDGSKWITGQLGSVGVKVGSNSKLAALQWGGSESAPPNIRVYYQKSNGSGSSIHEYVWSGKWTAGASFG
modifications: His tag
B3: Mono-F2-T: Mono-F2 pre-treated with thrombin protease to remove the His-tag (protein, listed as Aleuria aurantia)
chain: B2 chain
modifications: His-tag removed by thrombin

What was measured:
[1] = system: wheat-germ agglutinin isolated B-domain (WGA-B); settings: monovalent form of wheat-germ agglutinin (B-domain); Espinosa et al, 2000; cited from earlier work
[2] = ELISA binding of biotinylated lectin to oligosaccharide glycoconjugates; settings: for ELISA binding to non-fucosylated oligosaccharide LNT: LNT-BSA coated wells, absorbance 405 nm; for ELISA binding specificity towards fucosylated oligosaccharides: LNnF I, LNF II, LNF III, B-tri, SLex, SLea conjugates, absorbance 405 nm (FIG. 7)
Experimental: Purified Mono-F2 (SEQ ID NO: 4) and full length rAAL were biotinylated using IMMUNOPROBE™ Biotinylation Kit (Sigma-Aldrich, Stockholm, Sweden) according to the manufacturer's instruction. The biotin/protein ratio was determined to 1.1 biotin moieties per protein molecule for both Mono-F2 (SEQ ID NO: 4) and rAAL. Microtiter plates (Nunc MaxiSorp™ eBioscience, San Diego, CA) were coated with 0.2 μg of LNnF I-BSA, LNF II-BSA, LNF III-HSA, LNT-BSA; 0.1 μg of B-tri-HSA, SLex-HSA and SLea-HSA in 100 μL coating buffer (15 mM Na2CO3, 35 mM NaHCO3, 0.02% NaN3, pH 9.6). Then 100 μL of biotinylated Mono-F2 (SEQ ID NO: 4) or full length rAAL was added to the wells. After addition of ExtrAvidin (E-2632 Sigma-Aldrich, Stockholm, Sweden) and phosphatase substrate (Sigma 104®, Sigma-Aldrich, Stockholm, Sweden) the amount of Mono-F2 (SEQ ID NO: 4) or full length AAL binding to each well were measured at 405 nm using a VERSAmax microplate reader (Molecular Devices Corporation, Sunnyvale, CA).
To analyze whether the His-tag on Mono-F2 (SEQ ID NO: 4) affected the fucose binding the ELISA analysis was also performed using Mono-F2 (SEQ ID NO: 4) pre-treated with thrombin protease to remove the His-tag. Biotin labelled Mono-F2 (SEQ ID NO: 4) (50μg) in PBS was incubated with 2 units of thrombin protease (Amersham Biosciences, Uppsala, Sweden) for 2 hours at room temperature.

[3] = system: human type 0 erythrocytes; assay: Hemagglutination activity with human type 0 erythrocytes; assay type: cell-based; settings: 2% human type 0 erythrocytes in PBS, room temperature, 1 h; for minimum lectin concentration that gave hemagglutination (molar): approximate conversion of μg/ml
Experimental: The hemagglutination activity of full length rAAL and Mono-F2 (SEQ ID NO: 4) was determined by serial dilutions of the lectins in PBS and mixing with an equal volume (50μL) of 2% human type 0erythrocytes suspended in PBS. After incubation at room temperature for 1h the minimum lectin concentration that gave a positive reaction was determined.

[4] = Oligosaccharide affinity chromatography on silica column with immobilized Mono-F2; assay type: binding, human
Experimental: FIG. 5 - chromatograms of some fucosylated human milk oligosaccharides (LNnF I, LNF II and LNF III) and a non-fucosylated control (LNT) on a silica column with immobilized Mono-F2 (SEQ ID NO: 4).
Mono-F2 (SEQ ID NO: 4) was immobilized on silica particles (5μM, 300 Å) and packed in an affinity column (50×0.32 mm) and chromatography of a number of oligosaccharides were examined. […] Elutions of oligosaccharides were detected by UV absorbance at 210 nm.

[5] = Affinity chromatography on fucose-agarose column; assay type: binding
Experimental: Purified Mono-F2 (SEQ ID NO: 4) was analyzed on a 1 mL fucose-agarose column (Sigma-Aldrich, Stockholm, Sweden). The column was equilibrated with 20mL PBS. Mono-F2 (SEQ ID NO: 4) was added and the column was incubated for 20 minutes at 4° C. with gentle rocking. After incubation the column was washed with PBS until the absorbance at 280 nm had reached zero. Elution was performed with 4 mL of 0.15 M L-fucose in PBS, 4 mL of 1 M L-fucose in PBS, and lastly with glycine buffer pH 2.5. Fractions (1 mL) were collected with monitoring of absorbance at 280 nm. The fractions were further analysed by SDS-PAGE.

Molecule	ELISA binding to non-fucosylated oligosaccharide LNT [2]	ELISA binding specificity towards fucosylated oligosaccharides [2]	minimum lectin concentration that gave hemagglutination [3] [µg/mL]	minimum lectin concentration that gave hemagglutination (molar) [3] [µM]	other results
CC(=O)N[C@H]1[C@H](O[C@H]2[C@H](O)[C@@H](NC(C)=O)C(O)O[C@@H]2CO)O[C@H](CO)[C@@H](O[C@@H]2O[C@H](CO)[C@@H](O)[C@H](O)[C@H]2NC(C)=O)[C@@H]1O (stereo partly drawn) [chitotriose, N,N′, N″-triacetylchitotriose]					binding affinity [1]: millimolar range
B1	only low background binding	bound to all fucosylated oligosaccharides	2.5	~0.071	
B2	only low background binding	binding only non-sialylated oligosaccharide structures with α1-2 or α1-4 linked fucose	> 200	> 14	retention of non-fucosylated LNT on immobilized Mono-F2 column ([4]; LNT (non fucosylated) control): not bound to the column; retention of fucosylated oligosaccharides LNF I, LNF II and LNF III on immobilized Mono-F2 column ([4]; increasing retention times LNF I, LNF II, LNF III, UV 210 nm): retarded on the column; elution from fucose-agarose column with 0.15 M L-fucose ([5]; 4 mL of 0.15 M L-fucose in PBS): could not be eluted; elution from fucose-agarose column with 1 M L-fucose ([5]; 4 mL of 1 M L-fucose in PBS): Very little was eluted; binding to immobilized fucose (conclusion; low-pH buffer needed for full elution) ([5]; glycine buffer pH 2.5 needed for full elution): high affinity binding to fucose
B3					ELISA binding compared with non-treated Mono-F2 ([2]; LNnF I-, LNF II- and LNF III-BSA conjugates, His-tag removed with thrombin (FIG. 8)): identical binding
